Experiment: soluble on expression in E. coli; label from the status in PepcDB or PDB records

Sequence | soluble on expression in E. coli
MTKLFLPNTQATQQLGITLGKNLTAGSVILLEGDLGAGKTTLVQGIGKGLGINESIVSPTFTLINEYIEGRIPLYHLDLYRLKPQEVTGLNLESYWEGIEVTPGIVAIEWAERMPYLPDSYFRVCLKSGEDGDRQLEITAVNCQMIDNLISS | not soluble
MSLTNLDFHIVKRIRQRIAQGGDNAALKHKQNGQWQAINWHQFGEQLDELSMALLAQGIGVQDKIAIFSNNMPRWTIADFAALQIRAVTVPIYPTNTPEQAAYILQNADVKVVFVGEQAQFDAALSQFEQCPELRLIVAMNANIDLKQASCAMHWDEFVAQSHHQDRAPLDALIEQANYDDLFTLIYTSGTTGTPKGVMLDYRNIGAQLEGHDQRLNLTQEDVSLCFLPLSHVFERAWTAYVLYKGATNCYLQDVAHVREALAEVRPTVMCAVPRFYEKIFSAIHEKVVKAPLVRKVLFTWAVNMGAKMAVCRQQQRQPSWMLKQSHQFADKLVLSKLRALLGGRINFMPCGGAKLDETIGRFFHAIGINVKLGYGMTETTATVSCWDDHCFNPDSIGLSMPGAQVKIGENNEILVRGPMVMRGYYKLDKETTESFDEQGFLKTGDAGHIDENGNLFITDRIKELMKTSGGKYIAPQVIEGAIGKDHFIEQIAVIADTRKFVSALIVPCFDSLEEYAKELNIKYHDRLELIKHSQVLEMFEKRVNELQKELAKFEQVKKFRLLPKAFSMDSGELTPTQKLRREGHHHHHH | soluble
MAHHHHHHMDAPVNVFLRFGLSHSERLNHLLERVGTAQAAFRIVGPRQQEGVARTPAHPHDGADCARVGAPFSVHSGSCSHTCKGEAHDELCASLARLPPLPSPPPASHTCYCLHRTRFRCFCFPSPSLLQRRTLGGGGIGVGRAADVQHPFNGQEPALSVYFTHCHAGLRRTSPRCLISYCGRVSSLRFAFPLGDQVTFFVPLFHTDTSSMGTTHEYEPPVAMKPLEELTDADRREMRDLGIGEGMFNCILTSCMKFALSGGWSVRKHDAKYDIVWETKPSQNSNKQAMRFTAKVPNCNTGSLEAILVADEYLEDDPNVSYMYKYDRLLQQNHAEKRIAGNVTVQSTHYGAPVMFVAPRHIISYVTLGALLTPAQQKELWIRPTGLRDQLADAERKDDLMAFTQCCIDYTGDAVELRKGSERGHVYSYSLLGQEEPDGSMTVTMTLDIDPAGKLPAKVVDMSSDEQHKKMQRIVELLKAKGPQPHLCSVYQNTRDFPFRNPSKGEGEGKRS | soluble
MSLKTLTRFLIIPMLSVAFFSCSESHFLKDVAYRNQVTQDFEMKKQQLPNGELFAVFNEKLTIPEQEALMFLYAYMPTGDVTDYTGDYYLENVRLSDQARREMPWGKEIPDDVFRHFVLPIRVNNENLDDSRRVFYNELKDRVKNLSLHDAVLEVNHWCHEKVIYTPSDARTSAPLASVKTAYGRCGEESTFTVAALRSVGIPARQVYTPRWAHTDDNHAWVEAWVDGKWYFFGACEPEPVLNLGWFNAPASRGMLMHTKVFGRYTGEGHHHHHH | not soluble
MGSDKIHHHHHHMAAEALADEHLVMLAYRDPAIGDHIDVQKVRLPFRWEFDLPTIFSLVRLVWRKKIDILIPTKRKDYVLAGLVCRLTGAANILRLGIDRPLKNTPVQRLIYGWLADGIIVNADKIRRTLALSPWIDPDKVRVIYNGIDREKLEPDSVLPCKKPFSFTIGAAGALIPRKGFDYLIRSFARFSAGSNEITDAGLVIAGTGPERESLEKLAADLGISGRVRFTGHLTNPYPVMRACDLFVSASTSEGLANVLLESMALHCVPVSTLSGGADELIEDGRNGFLVRYGDEKRLAEIFSELYKNPGKIASVAANAHQTIMQRFSIELMRKDLFEFCSEINDRKKGT | not soluble
MQWSVWKMEESLDTLFSLLPDVRRVSCEQEMQRFTSDRRKLEWLSVRVLLYSMLQEDKEIGYSSEGKPHLTDNSSFISISHTKGYVAVILSSVAPVGIDIEQYGQRVKRVYDRFIRSDERVEPYQGDETWSMLLHWSAKETIFKSMENADADLRKLCLSHFIPQSEGVFQVREYATERQQLFTVGYRICPDFVLTWTVTIS | not soluble
MGSDKIHHHHHHMDVFSDRVLLTEESPIRKLVPFAEMAKKRGVRIHHLNIGQPDLKTPEVFFERIYENKPEVVYYSHSAGIWELREAFASYYKRRQRVDVKPENVLVTNGGSEAILFSFAVIANPGDEILVLEPFYANYNAFAKIAGVKLIPVTRRMEEGFAIPQNLESFINERTKGIVLSNPCNPTGVVYGKDEMRYLVEIAERHGLFLIVDEVYSEIVFRGEFASALSIESDKVVVIDSVSKKFSACGARVGCLITRNEELISHAMKLAQGRLAPPLLEQIGSVGLLNLDDSFFDFVRETYRERVETVLKKLEEHGLKRFTKPSGAFYITAELPVEDAEEFARWMLTDFNMDGETTMVAPLRGFYLTPGLGKKEIRIACVLEKDLLSRAIDVLMEGLKMFCSSRISC | soluble
MLREIPTHLIGGPLGAGKTSLIRSLLAQKPAGERWAVLVNEFGEIGLDAALLATDVDGVAIGEVAGGCLCCVNGVPFQVGLGRLLRRARPDRLFIEPSGLGHPQALWKQLQAPPWSGVLALQPLVVVLDAAALASGQPLPEAQEQALEAAGMLLLNKSETLDATQRCAVRARLPVLPLRWSVRGHLALRDLPTSVAGEGSATTWAALPEAPAQLGTVLLAERPLRAVREQDGQFAIGWRRRCVSIGPQWTPGLEHHHHHH | not soluble
SLHGELDKIYETLALAERRGPGPVDLLLCCGDFQAVRNEADLRCMAVPPKYRHMQTFYRYYSGEKKAPVLTLFIGGNHEASNHLQELPYGGWVAPNIYYLGLAGVVKYRGVRIGGISGIFKSHDYRKGHFECPPYNSSTIRSIYHVRNIEVYKLKQLKQPIDIFLSHDWPRSIYHYGNKKQLLKTKSFFRQEVENNTLGSPAASELLEHLKPTYWFSAHLHVKFAALMQHQAKDKGQTARATKFLALDKCLPHRDFLQILEIEHDPSAPDYLEYDIEWLTILRATDDLINVTGRLWNMPENNGLHARWDYSATEEGMKEVLEKLNHDLKVPCNFSVTAACYDPSKPQT | not soluble
MLSSQAYDIAIVGGGMVGLATAIGLAQADLNVVVIDAGHTEAVSGEPRLRVSAINKASQRLLEHLGAWHYVDASRATPYQKMAVWDKDGFGKIAFDASSISEPSLGAIIENDAISYALAKRASEFDNITHIENQRLERIAFGEREAWLTLANSADAEIESVSAALVIAADGANSWVREQCKIPLTFWDYGHHAIVATIRSEMPHLATARQVFLQDGPLAFLPLYEDNLCSIVWSVPPERATELLAMDKVQFERNLTAAFDGRLGICKLESERQAFPLRMRYARHFARHRLVLAGDAAHTIHPLAGQGVNLGFLDAASIIEVISELQQAGKDIGDYAELRALERWRKADAMEMIAAMEGFKRLFEGSNPVKKAIRDLGLNLVDNVAGLKTVFMQQAMGNKSSLPKLCRLEHHHHHH | soluble
MGSDKIHHHHHHMFLEPFFTQTDETVTISPFQASEFAKRVAEDFNPIHDESAKRFCVPGDLLFALVLSHYGLSQKMQFKFEGMVGEGVCLNFPVEVGDSFPICDSRDKTYLSVSRQGDVSRCETQIESFVRSYVSFSGLNFIHVLVPMMREHGVMINPDRPLVIYESMAFDLTTLDFDQVALELSDARLSVDGKRGDVTLEFALISDGKQVGTGVKTLVMSGLRALDEAALDGMAQFYEERRATL | not soluble
MSLTWKHYLSAWQNADLSNEWRRELQRVEEEQERFDGYLTFGTGGMRGKMGIGTKRINLFTIRRVAKGLGDYVVANEGAEMGVAIAFDSRHHSGAFAQETAKVLAAQGINVYLSDSIRPTPALSFCVREKGAFAGVVITASHNPSIYNGFKVYDKNGCQITLGVAQEIAGYLEKITDIFTIPVRELPNPLVTPLGKEMDDAYLNALTAVVSRPDLLADYGNELRICYTPLHGAGKELVMRGLLENGFSETTIIAEQSEPDGDFPTVISPNPEEENSFDLAKKLAKEIQADIILATDPDADRLGVAVLNKQATYQILTGNQLGALLLNYILEAKTPVTGADTMINTIVTGDLGGKIAYDFGINHIQTLTGFKFIGEKIAEMEGTEKNFLFGYEESYGYLIAPFVRDKDAVQAALLTAEMALFYKKEGTTLLGKLTNLFEKFGYHKEYLHTITLDDSDGITKMIQVIDALRKEPIFMPEITVVEDFLTSKRTNFVTMEVTNIELPKENVLKFYLMDSSWFAIRPSGTEPKCKIYFQTSGETEEIATKAMNELRKRVLAVWDEGHHHHHH | soluble
MDGEELREDLKEKGKTMDNDLKKSLKEAPSESYCYVLINPYVLDKDVREVDLATFLSSIFYVGKGKGERAMAYFKDACGNIQGSRKLTTIDQAWNKKGFVYKHIIWRPIIENLALAREAAMIFFFKNLAGKSNFTNKYNGSFKGESAFWSREEKCNYGVYLLETIHRSIQTNGCETVKKEDVAPRAAIQQSPRL | not soluble
PMLEVFYSGDRPPDRTRKQAFAAEASAIFQRVIGTPPGRLQLIIQIVSPENTLAVIDLDRPDSDTTAEPDQQ | soluble
MAHHHHHHMNTLGSSGSAGAEAPLVGGPDALTLQTINEQQLIILRQKELVSTLKECVEELGAQLRRAGVKPLEAAQKEDGCKGTLSYVSEMQLRRRVRTLEDENKKLSDLVDELRAEVSAISAQLCAQQLHTQSEKDVWKAKVSSAEAKSVATAHLLEATGKRNQQLVHHLETLRREGEVSAYECTQWRSLATTAVSHLDHANQRYARAQINSIEEDVHRYAVNRLRLVRVAASASLSLDSGTPEETRKIWSRSAQLPKLHPAPQVFQQQQQEPVCSPLHVSYKRPLSQLLPCQPPQPTTSYSLPPPTAEHVNAETHLSPSHCAALAQT | not soluble
MQDSVLGVMQPDGFQDIVAARFREARAGGLISTVFQIEIDDHTSLVERHGQRAAEVISTTSADRIAAVLRDRDAVTHLDTFKYAVCLEPVRQMDLELCIQLAGRIQAALEEPIALDATAVCITSSVGFCQQTKVLSRSGEAWLAAAGHALREAHLNGPGAIRAYSLEHHHHHH | not soluble
MDGEKSGNRELYTKRVYEYDQVINQVLKHEENILSLIKKDTFGAAYKRLVLADEMIYLATLYLAKFRLSVALLGGKNENILNEARKTLYKPIIYLEEIVTDLIDAPFSEYEEGVDRISKITEKQRYYLIRKLGLVINLVIDAYGENTKWRWSFIDIEARFAVVAKNIMDLKEISQTGLNPHAEDYDTVIYHLRLVKKLFTKAADKYREKYEIVTNNISDFRTAILFLEGLRRVHMVLNEHREVEEIKRKIEIWKDKMEKDLKQKDKPKK | not soluble
MTEADDPKKKIRARIERDVYSVLLSFQEGATPNQVERRMDDTLGYTYVGKYVQAGVRDMAQLLREHKDVRQNLSGVFSVVANEDNQDLINLISKQKKKKKGGKGAKPIRAATSMGFHNKSGFGYAAHLRSPKPSFMYPASSARANPAKPQATGYRNTVRHPPVRPSTATGHSSFANRSAYSHHTTRSTTVGPVKIAPSATAQRPLLRQPVTVVQRLSSTVAVPVLQPGIDSKCMPSIVDFSNNVKRMMLLEYPADVHLSELTEIYDKHFDVSIDPLQLFSKSWMMFVKTSFKEWLQLGTDGRVEVKEPWFTNFGAALKKSMPPAPEKKKPTTLHEPTSSVASSSLPISQGFRYQIPVVRPIVSVAESMKGLTVSARSVMGTPKDLPGVSNPIKNTARGSNKPRNDLASSKASKDLVVPVMKTTCIKSLEDTSTSSSNPSTLQLSTASTSATDQKLPKMSFGRQIEKGSSIPGRHISLALTEIKNQKVIAASIVGKSAKTSTKVPSTTRSVVLPPMSKGPGLARSRNFSPQQSTTSSIDNECLEAINAALPSDKDSW | soluble
MAHFGKLALSVTAAAVLALSAQARDQIKMAGSSTVYPFSSYVAEEFGATTGNKTPVVESLGTGGGFKVFCAGDGLDTTDIANASRPIKKSEFDNCVANGVTDITGVMIGYDGISIAQSKANAAINFKIEHLFLALAEEVPVDGKLVKNPYKTWNQVDASLPNRPIVVYGPPTTS | not soluble
MRTVDFTPLYRNAIGFDRLLNMMENSAAKNAQGGYPPYNIEQKEDNQYRITMAVAGFGDEEIDITQQENTLIVRGERKPEESKNYIYQGIAERDFERKFQLADYVKVTGATMEHGLLHIDLEREIPEAMQPRKIAINGKHLLENK | not soluble
